Assay: soluble on expression in E. coli; label from the status in PepcDB or PDB records

Sequence	soluble on expression in E. coli
MGSDKIHHHHHHMSRFVLITPDVSFDGRLRQAVAGGLQGGVQTFFTSLLPADPNDLFAHLDQERPEVLILGPDVPVEEALRLATVMNVRFPELSVILASEPDPDFILQAMRAGIRDILSPDSDAAQIRVLLERASQQFAGRYRVQAAAPMTDTNKGLVIGVFSPKGGVGKTTIATNIAVGLGKIAPMSVVIVDLDLQFGDVASALYLDPQHTVTDAVSPAASQDSLVLKAFLTVHPASIYAVCAPPTPVDADEITPEQVSRLLEQLSEQFQYVVVDTAPGLPEIGLAAMEQCTDVVWVSGMDIPSVRGLRSGLDVLRQLDILPETRHVVLNMADSKLGLTVQDLESTIGAPVDVSIPRSRAVALSTNRGIPVLQESAKDPATKGLNQLVNRFNPAWRATSQRKLHRRVVV	not soluble
MGSDKIHHHHHHMKEISCGRRTRVSFGKSREPLPIPDLVEIQKSSYRRFLEEGLLEVLKKFSPIYSQATRSDLRKSDRGFALEFVSTRTGEPAIDPLECKAKGLTYSVPIYATARLTDMKSGEMKEEEVFLGYIPYMTDRGTFIINGAERVVVNQIVVSPGLYFSSEYIDREEYGGYFLPSRGAWLEVILDPYDGVLYAGLDGKKVNLFLFLKTIGYEKDEDILSLYPTYLDADDEDSLLLHVGSILLEDIYDGGRKIAEKWDILTKDLAERILMIDDINQIKIVHPIAQNTFEKMLEVVSSSSEEGEEEEEKTKIYGLNEVTVVDAYLEIFRRLRPEELPRINAAKRYLHDLFFNPERYDLSEVGRYKVNERLRNAYIRYLIEVEGEDPEEARKKVYNETSLVLKPLDIVLASRILFDYFERRYVNDFEIDSYELKNLIRIFKEEYLEKRKTAPYDLRKLVSVFRRNYGVTSDLGVFAAIRYVSNINKELPSIPFDTKDHLGNKRVRTVGELVQREFERLFARAQKAIQERLTLINSLSKVSIQSLINIKSIISTVNQFFAMNQLSQFMDQVNPLSELTHKRRVSAVGPGGLRRESKVFEARNVHYSQYGRLCPIETPEGANIGFITSLAIYAKIDEYGFLMTPYRKVVNGKVTDEVVYLRANEEEEYKIIPATTPVDEEGNIIPERVVARMGEDIRLVPKEEVDFMDVSTKQPFSVSASLIPFLEHDDASRALMGSNMQRQAVPLLKTEAPLVGTGMEWEAAKNSGYVILAEHDGIVKEVDAARVVVHRTDENGNLMYDDKGNPVVDEYRLLKFVRSNQDTMINQKPIVNEGDFVKKGDPIADGPATDMGELALGRNILVAFMPWEGYNYEDAILVSQELLEEDVFTSIHIEVYETQARETRLGPEEITADIPNVSKELLKNLDENGIIRVGAYVVSDYGVGSQAILVGKVTPKGEGDTTPEEKIIRSVFGERGRDVKDTSLRLPHGVEGRVIRVDVYDQNDIAELGAGVLKLVRVYVASRKTLDIGDKLAGRHGNKGVVSNILPKEDMPFLPDGTPVQMVLNPLGIPSRMNVGQILETHLGWLAKLTGKWFATPVFEGAKEDEILRPLYEERKKRGLHLGDDENNPNGKVVLRDGRTGEPFDNPVVVGYMYMLKLIHIAKEKIHARSTGPYSLIHQQPLGGKSHFGGQRLGEMEVWALEAYGAAHTLAEMLTIKSDDIKGRNEAYKAILKNMNIPEPGVPESFRVLIKELRGLALDVRLYDENGNEIDIDKY	not soluble
KKDFTWSSTVTFTANKEKIKSLIEGQDMMFNAKKGDMVFKVGEGVGSFYRYKVLGIWQYSEKETAALFGCEPGDIKLDLPSVKKDGNGYYYMNPEGERVDITAENPYGVRADYDRQVIGRNTPDWTLGFKNNFRYKDFDLSVFLYARWGQMMNYGSVIGKYSPNPDYNIPTYFTYYDKTIEADQDVLFYAIDKSKDRSAYEGYDSMYYVDGSFFKLKNVTLGYTLPGKLTKRFGISNLRVYATMTNLFTYSPNKYVKNYDPEMNGSINFPLSRDCIFGLNLTF	not soluble
MSSSPVKRQRMESALDQLKQFTTVVADTGDFHAIDEYKPQDATTNPSLILAAAQMPAYQELVEEAIAYGRKLGGSQEDQIKNAIDKLFVLFGAEILKKIPGRVSTEVDARLSFDKDAMVARARRLIELYKEAGISKDRILIKLSSTWEGIQAGKELEEQHGIHCNMTLLFSFAQAVACAEAGVTLISPFVGRILDWHVANTDKKSYEPLEDPGVKSVTKIYNYYKKFSYKTIVMGASFRNTGEIKALAGCDFLTISPKLLGELLQDNAKLVPVLSAKAAQASDLEKIHLDEKSFRWLHNEDQMAVEKLSDGIRKFAADAVKLERMLTERMFNAENGK	soluble
WDPPYLQIAFDNPNLEFVLSAISEIPKSDHVIIEAGTPLIKRYGTDVISKIRQVRPDAFIVADLKTLDTGNLEARMVADAAGDAIVVSALAPISTIDKLIEEAHKTGIYAVMDTLNQQDPISVLKQLKVMPDVIELHRGIDIEGTEHAWGNIGEIKKIAPKALVAVAGGVRLDKVPVALSQGADILVVGRAITNAKDVREMAEQFINSLNK	soluble
MGSDKIHHHHHHMRNTDTYSYLVRDGHDLVHDPVPGILGPRPIGWISTCDSSGRPRLQTYSFFGIFNYVPPIVGFASVGGTESVNNAELTGEFAYNLATRPLAGCVNQTIVPALTEMDEFERSGLTKIRSIAIAAPRVAESPVSLECRVTSIQQLNGLDSEALNTWLVLGEVVAVHINRELLCDGFYDTVAAQPILRGGGACDYFEVLQAGKFRMTHPR	not soluble
MGHHHHHHSHMMEGLDDGPDFLSEEDRGLKAINVDLQSDAALQVDISDALSERDKVKFTVHTKSSLPNFKQNEFSVVRQHEEFIWLHDSFVENEDYAGYIIPPAPPRPDFDASREKLQKLGEGEGSMTKEEFTKMKQELEAEYLAIFKKTVAMHEVFLCRVAAHPILRRDLNFHVFLEYNQDLSVRGK	not soluble
MNTIAFKEIFLPIRPSIRAVCHAFLRDDEEAEDATQEVYLRLWEARMRLDGLDNPRAYAIRIARNYCLNLIRKASNSPYPTSLEAAEVQEVSETHGGEADLLLSEQIGRLRQWLRGVSELYRTVFAMSHFRRLSNGEIAERLGLTEGNVRVILCRLRREAKEVMKDDA	not soluble
MSLKKDIIILGIESSCDDTSAAVVRNETMLSNVIAGQAVHKAYGGVVPELASRAHQQNIVPVVSEAIKRAGIRKEEIDAIAFTRGPGLLGSLLVGTSFAKGLSLSLGIPMLEVNHLHAHVLANFLREPGEESQHPSFPFLCLLVSGGNSQIILVRSPYDMEVIGQTIDDAAGEAFDKCAKVMGLGYPGGPIVNKLASEGNPDAFRFARPHVSGYDYSFSGLKTSFLYTLRDKLAEDPDFIEKNKADLCASLQHTVIDILMKKLRQAAKDHSIKQVALAGGVSANTGLRDAFHDHARRYGWTVFIPKFAYTTDNAAMVAISGYYKYLQGDFCPIDAVPFSRITVEGHHHHHH	soluble
MLKVEMLSTGDEVLHGQIVDTNAAWLADFFFHQGLPLSRRNTVGDNLDDLVTILRERSQHADVLIVNGGLGPTSDDLSALAAATAKGEGLVLHEAWLKEMERYFHERGRVMAPSNRKQAELPASAEFINNPVGTACGFAVQLNRCLMFFTPGVPSEFKVMVEHEILPRLRERFSLPQPPVCLRLTTFGRSESDLAQSLDTLQLPPGVTMGYRSSMPIIELKLTGPASEQQAMEKLWLDVKRVAGQSVIFEGTEGLPAQISRELQNRQFSLTLSEQFTGGLLALQLSRAGAPLLACEVVPSQEETLAQTAHWITERRANHFAGLALAVSGFENEHLNFALATPDGTLALRVRFSTTRYSLAIRQEVCAMMALNMLRRWLNGQDIASEHGWIEVVESMTLSV	soluble
MTTTTTVRQCRVTRIGSTELPPRVENAIQFLDDQCYEKLGGTVVMKWFGNRVPPEDHRQLSSFCHVVNLTKYDDDPKSRYHKDDIECACGTSSNLFFLKKFNEAVEKYPCDDDETITKAPTTEPSDDLWCWQLRSRSFASSPPPPRMKNAIQLLDDKCYAKLGGTTVMKWFGNVVTPEGKVCFVINLTDSKMKLYKKEIVCACGRQSYVFFLEGLILMREKYSCNDKTTTKSTRTTPSTTTAKQCYVRRTGSSVSPPRETDAIPMLDDQCYEKMGGTSVMDRFGNREPPKSVYEYSEFCLLVDVTLNGPAMETYQSDIECVCGISSLEFFLEKFEEAIKKYPCDNDGATEAATTKPTTTTVTTTTVPPKTDPPRTEPPKTEPPTTEPPKIEPPRTEPPKTEPPPTEPPKTEPPKTTPPKTEPPTTEPPNIPYCWQQQSRLFAPSPPPPRVNNTMPLIEDKCYAKLGDTLVMAWFGNRAPPKNFTEVLDFCTVAALTYNNESAVFSVFKKDIQCNCDKLSFSRFLKKLSEAMEKYQCNNVWTRTEAPETVTTRTEPPRTEPPRTIPPRTEAPRTEPPRTEPPKTEAPRTVRPKTEAPMTVPPRTEPPMTEAPRTEVPMTEPPKTEPPRTAPPRTEVSMTLPPETVPPNTEAPRTEVPMTVPPRTEPPKTEAPRTVPPKTEAPMTEVPMTGPSRTEVPMTEPPKTEQPRTAPPRTEVSMTLPPETVPPKTEAPRTEVPMTGPSRTEVPMTVTPETGLSSTVTSKTEPPKTTTEKRITPRTEVPKTVPPRTGPPMTVPPGTEAPTTEAPMTITPRTEQLRTEQLRTDQSKTVTPKTKITVWPTDYRGPI	not soluble
MKTFESLFAELSEKAQTRPEGSLTVDELDKGTHFIGKKIIEEAGETWMAAEYEGADRTAEEMSQLLYHVQVMMIKHGLTLEDVYKHL	soluble
MGSDKIHHHHHHMSIRIGISGWRYARWRGTFYPTGLAQRRELAYAGRCFPSVEINGSFYSLQRPESYQSWHDETPDDFVFAVKGPRFVTHMKRLRDCEQALANFFASGVLRLGEKLGPILWQLPPTLRFDDAVLDAFLSSLPRDTEAALALARKRDTTLMHGRTALSIDRKRPLRHALEMRHPSFCDPSCMKLLRKHKVGVVVADTAGKFPYLEDVTADFVYLRLHGDAQLYASGYSDHALDRWGERIAAWAAGGEPSDAQRVGPRASKRARRDVYCYFDNDMKVHAPFDARGLMQRLDLPTDCPAREEVV	not soluble
MDQGPINRPHFFFTTAPMPCPYLEGHLERKMVTDLTGPEAERLHESLSRAGFRRSHTIAYAPVCPGCTACVPVRIRARAFVKNKSFRRIVRANAGVTAEYVPARATVEQFHLFSQYQQARHGESDMALMGFFDYRSMVEDSPISTSIAEFREAGGELVAACLIDHLSDGLSAVYSFFNTTLPQSRGLGTWMILWMVDETVRRDLDHVYLGYWIAESSKMAYKERFQPLEVFGRRGWIAFDERGRPGLEHHHHHH	not soluble
MGSDKIHHHHHHMIKVSQLTVRYGELKAVEDLSLEVQRGEILSLVGPSGCGKTTVVKAILGLIPYEGKIEIFTSRLGYCPQKDVLFDWMTVYENAVLPLVLRKEQPPSNIKELFERFGLSGFEEKRPYQLSGGMRQKLSLLRAVLSGEELLVLDEPFSSVDAYTRKKLQIWLSEIVHRMKSTVVLITHDVEEAVFLSDRILILSDRPARILKEIRVPFSKPRTIKTFSDPRFSEIEEEVLETLMNQP	not soluble
ARKCSLTGKWTNNLGSIMTIRAVNSRGEFTGTYLTAVADNPGNITLSPLLGIQHKRASQPTFGFTVHWNFSESTTVFTGQCFIDRNGKEVLKTMWLLRSSVNDISYDWIATRVGYNNFTRLSTVEE	soluble
KKVVFFGVGAVGATFAEQFFNSKYDFKILCDNERKKRYLEEGFIINGKRYDFDYVTKDEYKQEADFIIIGLKYNNLKENIKELDGLVGKNTVIMSLLNGVDSEEIIGERFGIEKMVYSYVTNIDAKKINNNIIHTTNGIIVFGNKDNSEDRKTNIITEVFDDVNIEYTLSKDIQRDMWWKYMVNI	not soluble
